Measurements taken from patent US20250026849A1 (ARCELLX, published 2025).

T1: CD123 (Homo sapiens (Human), UniProt P26951 19-305, limits assumed)
T1 sequence: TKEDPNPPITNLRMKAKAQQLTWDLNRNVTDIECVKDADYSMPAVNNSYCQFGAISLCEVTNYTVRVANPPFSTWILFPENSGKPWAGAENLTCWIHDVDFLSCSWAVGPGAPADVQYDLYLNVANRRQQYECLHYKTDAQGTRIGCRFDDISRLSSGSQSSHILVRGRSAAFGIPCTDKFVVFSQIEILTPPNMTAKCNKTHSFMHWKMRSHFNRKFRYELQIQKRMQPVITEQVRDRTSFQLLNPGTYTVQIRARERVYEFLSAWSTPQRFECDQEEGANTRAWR

T2: CD123 (Homo sapiens (Human), UniProt P26951 19-305, limits assumed)
T2 construct: also called CD123-Signal
T2 sequence: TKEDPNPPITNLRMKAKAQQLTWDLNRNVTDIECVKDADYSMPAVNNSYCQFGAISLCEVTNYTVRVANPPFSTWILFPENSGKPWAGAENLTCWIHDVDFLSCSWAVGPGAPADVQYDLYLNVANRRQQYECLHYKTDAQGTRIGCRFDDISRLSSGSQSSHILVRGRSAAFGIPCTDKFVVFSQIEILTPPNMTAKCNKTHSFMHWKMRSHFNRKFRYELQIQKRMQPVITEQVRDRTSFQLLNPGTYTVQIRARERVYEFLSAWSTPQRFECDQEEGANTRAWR


What was measured:
Assay in all cases: ELISA, format not described
Design in all cases: unit not given here
HER2 = molecular target: T3, HER2 (human, UniProt P04626 23-652)
T3 construct: The ELISA is not described; also called ERBB2; CD340

CD123 [1] = molecular target: T1, CD123
CD123 [2] = molecular target: T2, CD123

Binder	ELISA_avg (HER2)	also measured
HER2-binding D domain SEQ ID NO: 819 (designed binder) MGSWFEFNIRLHAIEYRLKALGGSEAELAAFEKEIAAFESELQAYKGKGNPEVEELRNYAASIRKLLQAYRHN	7.86	–
HER2-binding D domain SEQ ID NO: 833 (designed binder, also called eb09) MGSWWEFNIRLHAIDYRLKALGGSEAELAAFEKEIAAFESELQAYKGKGNPEVELLREKAAQIRAQLQAYRHN	9.75	–
HER2-binding D domain SEQ ID NO: 820 (designed binder) MGSWFEFEIRLRAIEYRLSALGGSEAELAAFEKEIAAFESELQAYKGKGNPEVEKLRELAAEIRYALQAYRHN	7.75	–
HER2-binding D domain SEQ ID NO: 834 (designed binder, also called eb06) MGSWWEFRVRLEAIDYRLKALGGSEAELAAFEKEIAAFESELQAYKGKGNPEVEYLRMKAATIRAILQAYRHN	6.82	–
HER2-binding D domain SEQ ID NO: 812 (designed binder) MGSWVNFKTHLARIKVHLEALGGSEAELALFEHDIANFEQVLQQYKGKGNPEVEALRKEAAAIRDELQAYRHN	7.91	–
HER2-binding D domain SEQ ID NO: 839 (designed binder, also called eb10) MGSWWEFNMRLSAIKYRLYALGGSEAELAAFEKEIAAFESELQAYKGKGNPEVEILRRLAADIRERLQAYRHN	3.08	–
HER2-binding D domain SEQ ID NO: 818 (designed binder) MGSWWEFKIRLYAIEYRLNALGGSEAELAAFEKEIAAFESELQAYKGKGNPEVEALRAKAAQIRYNLQAYRHN	4.49	–
HER2-binding D domain SEQ ID NO: 822 (designed binder) MGSWWEFKVRLRAIEYRLSALGGSEAELAAFEKEIAAFESELQAYKGKGNPEVEELRVLAASIRIHLQAYRHN	10.1	–
HER2-binding D domain SEQ ID NO: 824 (designed binder) MGSWIEFWVRLNAILYRLYALGGSEAELAAFEKEIAAFESELQAYKGKGNPEVEALRDSAAEIRRWLQAYRHN	3.91	–
HER2-binding D domain SEQ ID NO: 816 (designed binder) MGSWWEFHIRLHAINYRLAALGGSEAELAAFEKEIAAFESELQAYKGKGNPEVEALRELAAKIRGDLQAYRHN	11.9	–
HER2-binding D domain SEQ ID NO: 835 (designed binder) MGSWYEFDIRLEAIKYRLSALGGSEAELAAFEKEIAAFESELQAYKGKGNPEVEYLRKKAAVIRSMLQAYRHN	5.35	–
HER2-binding D domain SEQ ID NO: 836 (designed binder) MGSWWEFRIRLEAIWYRLHALGGSEAELAAFEKEIAAFESELQAYKGKGNPEVEDLRIFAANIRSKLQAYRHN	8.04	–
HER2-binding D domain SEQ ID NO: 825 (designed binder) MGSWVEFWIRLNAIKYRLLALGGSEAELAAFEKEIAAFESELQAYKGKGNPEVEKLRQDAADIRELLQAYRHN	10.6	–
HER2-binding D domain SEQ ID NO: 827 (designed binder) MGSWWEFYLRLRAISYRLQALGGSEAELAAFEKEIAAFESELQAYKGKGNPEVEGLRQDAAEIRKLLQAYRHN	5.1	–
HER2-binding D domain SEQ ID NO: 826 (designed binder) MGSWTEFWWRLSAIVYRLNALGGSEAELAAFEKEIAAFESELQAYKGKGNPEVEELRDMAADIRSLLQAYRHN	5.76	–
D-domain SEQ ID NO: 340 (designed binder) MGSWIEFNMRVLAIEDRLWALGGSEAELAAFEKEIAAFESELQAYKGKGNPEVESLRYEACLDPWSSAAYRHN	–	ELISA_avg (CD123 [1]): 3.2

Binder	ELISA_avg (HER2)	also measured
D domain SEQ ID NO: 737 (designed binder) MGSWKEFDNRLYAIEDRLRALGGSEAELAAFEKEIAAFESELQAYKGKGNPEVEHLRWYAADIRMILQAYRHN	–	ELISA_avg (CD123 [2]): 3.9
HER2-binding D domain SEQ ID NO: 828 (designed binder) MGSWWEFHVRLRAIEYRLEALGGSEAELAAFEKEIAAFESELQAYKGKGNPEVEQLRLIAANIRHLLQAYRHN	5.48	–
HER2-binding D domain SEQ ID NO: 831 (designed binder) MGSWWEFQVRLAAIEYRLKALGGSEAELAAFEKEIAAFESELQAYKGKGNPEVENLRQLAAHIRSVLQAYRHN	6.33	–
HER2-binding D domain SEQ ID NO: 840 (designed binder) MGSWWEFHIRLRAIKYRLYALGGSEAELAAFEKEIAAFESELQAYKGKGNPEVEDLRILAAEIRAQLQAYRHN	14.8	–
HER2-binding D domain SEQ ID NO: 832 (designed binder) MGSWWEFQVRLSAIEYRLTALGGSEAELAAFEKEIAAFESELQAYKGKGNPEVEELRQKAARIRSLLQAYRHN	9.61	–
HER2-binding D domain SEQ ID NO: 829 (designed binder) MGSWWEFHVRLKAIEYRLLALGGSEAELAAFEKEIAAFESELQAYKGKGNPEVEDLRYIAANIRQLLQAYRHN	4.56	–
HER2-binding D domain SEQ ID NO: 811 (designed binder) MGSWWGFKVNLAWIKWKLEALGGSEAELAYFELWIANFEHSLQEYKGKGNPEVEALRKEAAAIRDELQAYRHN	8.69	–
D-domain SEQ ID NO: 341 (designed binder) MGSWIEFHERLWAIEDRLWALGGSEAELAAFEKEIAAFESELQAYKGKGNPEVESLREMAASIRHGLQAYRHN	–	ELISA_avg (CD123 [1]): 3.4
D-domain SEQ ID NO: 342 (designed binder) MGSWFEFYERLWAIDDRLWALGGSEAELAAFEKEIAAFESELQAYKGKGNPEVEWLREEAASIRSSLQAYRHN	–	ELISA_avg (CD123 [1]): 6
D domain SEQ ID NO: 763 (designed binder) MGSWWEFEDRLMAIYDRLYALGGSEAELAAFEKEIAAFESELQAYKGKGNPEVEYLRAEAALIRETLQAYRHN	–	ELISA_avg (CD123 [2]): 15.3
D-domain SEQ ID NO: 343 (designed binder) MGSWFEFWDRLEAIDDRLFALGGSEAELAAFEKEIAAFESELQAYKGKGNPEVESLRYNAAEIRKELQAYRHN	–	ELISA_avg (CD123 [1]): 4.9
D-domain SEQ ID NO: 346 (designed binder) MGSWHEFWDRLEAIDDRLYALGGSEAELAAFEKEIAAFESELQAYKGKGNPEVEFLREEAAYIRELLQAYRHN	–	ELISA_avg (CD123 [1]): 10.6
D domain SEQ ID NO: 769 (designed binder) MGSWFEFVDRLEAIEMRLFALGGSEAELAAFEKEIAAFESELQAYKGKGNPEVELLRWRAAMIRYDLQAYRHN	–	ELISA_avg (CD123 [2]): 7.1
D domain SEQ ID NO: 764 (designed binder) MGSWFEFEDRLYAIEDRLYALGGSEAELAAFEKEIAAFESELQAYKGKGNPEVEYLRWGAATIRDELQAYRHN	–	ELISA_avg (CD123 [2]): 4.7
D-domain SEQ ID NO: 345 (designed binder) MGSWYEFWIRLEAIDDRLFALGGSEAELAAFEKEIAAFESELQAYKGKGNPEVDILRDFAADIRTELQAYRHN	–	ELISA_avg (CD123 [1]): 10.4
D-domain SEQ ID NO: 344 (designed binder) MGSWHEFWSRLDAIDDRLFALGGSEAELAAFEKEIAAFESELQAYKGKGNPEVEYLRGAAADIRAELQAYRHN	–	ELISA_avg (CD123 [1]): 3.8

Now from value to binder, other results behind:

ELISA_avg (HER2)	Binder	also measured
13.1	HER2-binding D domain SEQ ID NO: 821 (designed binder) MGSWFEFKIRLYAIQYRLSALGGSEAELAAFEKEIAAFESELQAYKGKGNPEVEELRNLAAEIRHSLQAYRHN	–
8.15	HER2-binding D domain SEQ ID NO: 810 (designed binder, also called eb05) MGSWHEFLRRLLAIEMRLYALGGSEAELAAFEKEIAAFESELQAYKGKGNPEVEHLRVRAASIRQMLQAYRHN	–
5.17	HER2-binding D domain SEQ ID NO: 815 (designed binder) MGSWWEFKVRLSAIQYRLYALGGSEAELAAFEKEIAAFESELQAYKGKGNPEVEALREQAALIRTILQAYRHN	–
6.73	HER2-binding D domain SEQ ID NO: 838 (designed binder) MGSWWEFNVRLSAIRYRLLALGGSEAELAAFEKEIAAFESELQAYKGKGNPEVEDLRASAAQIRAMLQAYRHN	–
14.4	HER2-binding D domain SEQ ID NO: 817 (designed binder) MGSWWEFQVRLRAIQYRLNALGGSEAELAAFEKEIAAFESELQAYKGKGNPEVEYLRGLAAQIRFDLQAYRHN	–
5.23	HER2-binding D domain SEQ ID NO: 837 (designed binder) MGSWWEFNVRLQAIKYRLSALGGSEAELAAFEKEIAAFESELQAYKGKGNPEVEDLRKTAAHIRWQLQAYRHN	–
3.28	HER2-binding D domain SEQ ID NO: 813 (designed binder) MGSWLVFKDELAGIKNYLEALGGSEAELATFEQDIAWFEQWLQNYKGKGNPEVEALRKEAAAIRDELQAYRHN	–
4.95	HER2-binding D domain SEQ ID NO: 814 (designed binder, also called eb04) MGSWKTFKIELAGIKLELEALGGSEAELAGFENAIAQFESSLQYYKGKGNPEVEALRKEAAAIRDELQAYRHN	–
14.8	HER2-binding D domain SEQ ID NO: 823 (designed binder) MGSWSEFWFRLHAILYRLQALGGSEAELAAFEKEIAAFESELQAYKGKGNPEVETLRDAAAEIRVALQAYRHN	–
7.18	HER2-binding D domain SEQ ID NO: 809 (designed binder, also called eb08) MGSWYEFRWRLHAIWLRLGALGGSEAELAAFEKEIAAFESELQAYKGKGNPEVEWLRQDAAQIRYILQAYRHN	–
